Values quoted from earlier work in PMC5135002.

Biological target: CYLD USP (Homo sapiens) (UniProt Q9NQC7)
Chain of UniProt Q9NQC7 (Q9NQC7 589-953): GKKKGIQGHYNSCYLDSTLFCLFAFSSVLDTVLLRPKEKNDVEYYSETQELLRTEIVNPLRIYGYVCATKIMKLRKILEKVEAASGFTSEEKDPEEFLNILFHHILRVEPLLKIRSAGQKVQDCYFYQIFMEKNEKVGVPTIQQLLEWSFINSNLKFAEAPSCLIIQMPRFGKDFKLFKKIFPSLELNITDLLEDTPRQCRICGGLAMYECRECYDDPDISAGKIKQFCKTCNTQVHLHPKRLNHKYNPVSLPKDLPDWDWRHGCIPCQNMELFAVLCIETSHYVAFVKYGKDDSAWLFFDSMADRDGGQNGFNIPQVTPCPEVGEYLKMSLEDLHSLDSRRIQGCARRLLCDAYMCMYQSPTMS

- Kd: 10 nM
Substance: SPATA2 PUB (from UniProt Q9UM82)
